Test [1] has as its target T1, hRET(ECR)-hIgG1.1_Fc (human).
T1 construct: also called hRET(ECR)-Fc; hRet(ECR)-Fc
As to the kind of experiment: SPR; analyte 0 nM over immobilised hRet(ECR)-Fc. How it is done: (§1) hRet and complex of hGFRAL and MIC-1 interactions were assessed by SPR-based binding assay. A Biacore® 4000 (GE Healthcare, Piscataway, N.J., USA) instrument was used. The assays were performed at 25° C. at flow rates of 30 μL/minute in 1× HBS-P running buffer (BR-1006-71, GE Healthcare, Piscataway, N.J., USA). hRet(ECR)-Fc was immobilized through Fc as ligand on the chip. VISTA-Fc was immobilized as negative control ligand. The complex of MIC-1 and hGFRAL was prepared by pre-incubating wtMIC-1 with hGFRAL(ECR)-His. wtMIC-1, hGFRAL(ECR)-His, complex of wtMIC-1 and Ctrl-His, and complex of wtMIC-1 and hGFRAL(ECR)-His at various concentration were run as flow-through analyte.
(§2) Thus, it can be concluded that that hRet binds to hGFRAL in the presence of MIC-1; and Ret, MIC-1 and GFRAL forms a ternary complex.
For orientation: In SPR one partner is held on a chip, and binding of the other changes the refractive index at the surface.

The target of test [2] is T1, hRET(ECR)-hIgG1.1_Fc. Briefly: SPR; analyte 12 nM over immobilised hRet(ECR)-Fc. How it is done: as §1, §2
For test [3], the target named is T1, hRET(ECR)-hIgG1.1_Fc. As to the kind of experiment: SPR; analyte 37 nM over immobilised hRet(ECR)-Fc. The method, then: as §1, §2
The target of test [4] is T1, hRET(ECR)-hIgG1.1_Fc. Briefly: SPR; analyte 111 nM over immobilised hRet(ECR)-Fc. How it is done: as §1, §2
For test [5], the target named is T1, hRET(ECR)-hIgG1.1_Fc. Briefly: SPR; analyte 333 nM over immobilised hRet(ECR)-Fc. The method, then:
as §1, §2

For test [6], the target named is T1, hRET(ECR)-hIgG1.1_Fc. As to the kind of experiment: SPR; analyte 1000 nM over immobilised hRet(ECR)-Fc. How it is done:
as §1, §2

The target in test [7] is T2, VISTA-Fc.
T2 construct: Negative control ligand immobilised on the chip; also called Ctrl-Fc
Briefly: SPR; analyte 0 nM over immobilised VISTA-Fc (Ctrl-Fc). The method, then: as §1, §2

Test [8] deals with T2, VISTA-Fc. As to the kind of experiment: SPR; analyte 12 nM over immobilised VISTA-Fc (Ctrl-Fc). The method, then: as §1
Test [9] deals with T2, VISTA-Fc. As to the kind of experiment: SPR; analyte 37 nM over immobilised VISTA-Fc (Ctrl-Fc). The method, then: as §1, §2
The target of test [10] is T2, VISTA-Fc. As to the kind of experiment: SPR; analyte 111 nM over immobilised VISTA-Fc (Ctrl-Fc). The method, then: as §1, §2
For test [11], the target named is T2, VISTA-Fc. As to the kind of experiment: SPR; analyte 333 nM over immobilised VISTA-Fc (Ctrl-Fc). The method, then: as §1, §2
For test [12], the target named is T2, VISTA-Fc. Briefly: SPR; analyte 1000 nM over immobilised VISTA-Fc (Ctrl-Fc). The method, then:
as §1, §2

The next test addresses T3, wild type human MIC-1 (human, UniProt Q99988 197-308).
T3 construct: also called wtMIC-1; hMIC-1
T3 sequence: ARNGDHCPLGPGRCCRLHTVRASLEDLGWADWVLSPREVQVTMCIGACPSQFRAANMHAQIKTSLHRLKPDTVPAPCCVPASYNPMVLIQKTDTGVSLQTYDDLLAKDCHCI
As to the kind of experiment: SPR; GFRAL fragment as analyte over immobilised wtMIC-1; relative to hGFRAL(ECR) set as 100%. The method, then: MIC-1 interactions with soluble GFRAL fragments were assessed by SPR-based binding assay. A Biacore® 4000 (GE Healthcare, Piscataway, N.J., USA) instrument was used for SPR-based binding assay. The assays were performed at 25° C. at flow rates of 30 μL/minute in 1× HBS-P running buffer (BR-1006-71, GE Healthcare, Piscataway, N.J., USA). Purified GFRAL fragments at various concentrations were run as flow-through analyte and wtMIC-1 was immobilized as ligand. Please see FIG. 6 and Table 5.

T1 sequence (chain, as listed by the source limits assumed): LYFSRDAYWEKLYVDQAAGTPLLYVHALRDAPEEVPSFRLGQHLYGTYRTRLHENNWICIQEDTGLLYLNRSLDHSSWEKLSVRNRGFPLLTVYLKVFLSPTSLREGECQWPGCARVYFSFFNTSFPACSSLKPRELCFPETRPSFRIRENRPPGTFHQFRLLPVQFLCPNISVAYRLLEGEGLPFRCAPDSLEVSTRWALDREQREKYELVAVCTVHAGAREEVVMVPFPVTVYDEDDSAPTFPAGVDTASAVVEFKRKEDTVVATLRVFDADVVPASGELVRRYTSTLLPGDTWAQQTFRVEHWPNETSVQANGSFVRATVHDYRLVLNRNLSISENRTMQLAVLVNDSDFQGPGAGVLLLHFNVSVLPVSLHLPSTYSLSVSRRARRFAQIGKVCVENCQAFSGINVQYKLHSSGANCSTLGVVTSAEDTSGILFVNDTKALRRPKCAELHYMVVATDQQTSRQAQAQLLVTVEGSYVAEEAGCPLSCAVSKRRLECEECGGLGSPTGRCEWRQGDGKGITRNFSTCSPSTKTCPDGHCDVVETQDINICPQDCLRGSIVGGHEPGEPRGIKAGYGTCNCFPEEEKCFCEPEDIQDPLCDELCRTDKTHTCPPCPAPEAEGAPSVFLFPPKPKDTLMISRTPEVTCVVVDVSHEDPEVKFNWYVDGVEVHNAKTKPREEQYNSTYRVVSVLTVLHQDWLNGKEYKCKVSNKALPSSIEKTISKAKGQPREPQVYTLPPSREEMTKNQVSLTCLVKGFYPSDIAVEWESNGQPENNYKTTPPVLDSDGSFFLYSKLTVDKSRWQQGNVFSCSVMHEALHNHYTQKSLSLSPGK

B1: hGFRAL(ECR)-His (receptor, not shown: small tags and cut ends)
chain: SQTNNCTYLREQCLRDANGCKHAWRVMEDACNDSDPGDPCKMRNSSYCNLSIQYLVESNFQFKECLCTDDFYCTVNKLLGKKCINKSDNVKEDKFKWNLTTRSHHGFKGMWSCLEVAEACVGDVVCNAQLASYLKACSANGNPCDLKQCQAAIRFFYQNIPFNIAQMLAFCDCAQSDIPCQQSKEALHSKTCAVNMVPPPTCLSVIRSCQNDELCRRHYRTFQSKCWQRVTRKCHEDENCISTLSKQDLTCSGSDDCKAAYIDILGTVLQVQCTCRTITQSEESLCKIFQHMLHRKSCFNYPTLSNVKGMALYTRKHANKITLTGFHSPFNGE
Consider B1, for which the “Response (RU)” value was 0 RU in the test with hRET(ECR)-hIgG1.1_Fc [1]; -0.0397 RU in the test with hRET(ECR)-hIgG1.1_Fc [2]; -0.105 RU with hRET(ECR)-hIgG1.1_Fc [3]; 0.208 RU in the test with hRET(ECR)-hIgG1.1_Fc [4]; -0.497 RU with hRET(ECR)-hIgG1.1_Fc [5]; -1.11 RU with hRET(ECR)-hIgG1.1_Fc [6]. Also, the “Response (RU)” value with VISTA-Fc [7] is 0 RU; with VISTA-Fc [8] it was -2.34 RU; with VISTA-Fc [9], -2.04 RU; in the test with VISTA-Fc [10], -2.94 RU; in the test with VISTA-Fc [11], -3.48 RU; with VISTA-Fc [12] it was -3.85 RU.

B2: complex of wtMIC-1 and hGFRAL(ECR)-His (other)
chain 1: T3 sequence
chain 2: B1 chain
notes: Prepared by pre-incubating wtMIC-1 with hGFRAL(ECR)-His; also called wtMIC-1 + hGFRAL(ECR)-His; complex of MIC-1 and hGFRAL; not shown: His tag, not described
Take B2: the “Response (RU)” value came out at 0 RU with hRET(ECR)-hIgG1.1_Fc [1]; 0.226 RU with hRET(ECR)-hIgG1.1_Fc [2]; 1.97 RU with hRET(ECR)-hIgG1.1_Fc [3]; 5.48 RU with hRET(ECR)-hIgG1.1_Fc [4]; 8.32 RU with hRET(ECR)-hIgG1.1_Fc [5]; 10.7 RU in the test with hRET(ECR)-hIgG1.1_Fc [6]. In addition, the “Response (RU)” value with VISTA-Fc [7] was 0 RU; in the test with VISTA-Fc [8], -1.39 RU; with VISTA-Fc [9] it was -1.48 RU; in the test with VISTA-Fc [10], -1.02 RU; with VISTA-Fc [11] it was -1.43 RU; with VISTA-Fc [12], -1.4 RU.

B3: hGFRAL_C2_Fab_HPC4 (receptor)
chain: CLEVAEACVGDVVCNAQLASYLKACSANGNPCDLKQCQAAIRFFYQNIPFNIAQMLAFCDCAQSDIPCQQSKEALHSKTCAVNMVPPPTGGGGSGGGGSDVVMTQTPLSLPVSLGDQASISCRSSQSLLHSNGNTYLHWYLQKPGQSPKLLIYKVSNRFSGVPDRFSGSGSGTDFTLKISRVEAEDLGVYFCSQSTHVPWTFGGGTKLEIKRADAAPTVSIFPPSSEQLTSGGASVVCFLNNFYPKDINVKWKIDGSERQNGVLNSWTDQDSKDSTYSMSSTLTLTKDEYERHNSYTCEATHKTSTSPIVKSFNRNEC
heavy: EVQIQESGPSLVKPSQTLSLTCSVSGDSITSGYWNWIRKFPGHKIEYMGTISYSGDTYYNPSLKSRISITRDTSKNQYYLHLNSVTTEDTATYYCARYGSYVFDYWGQGTTLTVSSAKTTPPSVYPLAPGSAAQTNSMVTLGCLVKGYFPEPVTVTWNSGSLSSGVHTFPAVLQSDLYTLSSSVTVPSSTWPSETVTCNVAHPASSTKVDKKIVPRDCGGGGSEDQVDPRLIDGK
notes: C2 = amino acid 131-219 of UniProt Q6UXV0
Consider B3, for which the “% of Binding” value with wild type human MIC-1 was determined as 21%.

B4: hGFRAL_C2C3_Fab_HPC4 (receptor)
chain: CLEVAEACVGDVVCNAQLASYLKACSANGNPCDLKQCQAAIRFFYQNIPFNIAQMLAFCDCAQSDIPCQQSKEALHSKTCAVNMVPPPTCLSVIRSCQNDELCRRHYRTFQSKCWQRVTRKCHEDENCISTLSKQDLTCSGSDDCKAAYIDILGTVLQVQCTCRTITQSEESLCKIFQHMLHRKSCFNYPTLSNVKGMALYTRKHANKITLTGFHSPFNGEGGGGSGGGGSDVVMTQTPLSLPVSLGDQASISCRSSQSLLHSNGNTYLHWYLQKPGQSPKLLIYKVSNRFSGVPDRFSGSGSGTDFTLKISRVEAEDLGVYFCSQSTHVPWTFGGGTKLEIKRADAAPTVSIFPPSSEQLTSGGASVVCFLNNFYPKDINVKWKIDGSERQNGVLNSWTDQDSKDSTYSMSSTLTLTKDEYERHNSYTCEATHKTSTSPIVKSFNRNEC
heavy: B3 heavy
With B4, in the test with wild type human MIC-1, the “% of Binding” value came out at 8%.

B5: hGFRAL_C1C2_Fab_HPC4 (receptor)
chain: QTNNCTYLREQCLRDANGCKHAWRVMEDACNDSDPGDPCKMRNSSYCNLSIQYLVESNFQFKECLCTDDFYCTVNKLLGKKCINKSDNVKEDKFKWNLTTRSHHGFKGMWSCLEVAEACVGDVVCNAQLASYLKACSANGNPCDLKQCQAAIRFFYQNIPFNIAQMLAFCDCAQSDIPCQQSKEALHSKTCAVNMVPPPTGGGGSGGGGSDVVMTQTPLSLPVSLGDQASISCRSSQSLLHSNGNTYLHWYLQKPGQSPKLLIYKVSNRFSGVPDRFSGSGSGTDFTLKISRVEAEDLGVYFCSQSTHVPWTFGGGTKLEIKRADAAPTVSIFPPSSEQLTSGGASVVCFLNNFYPKDINVKWKIDGSERQNGVLNSWTDQDSKDSTYSMSSTLTLTKDEYERHNSYTCEATHKTSTSPIVKSFNRNEC
heavy: B3 heavy
In the case of B5, the “% of Binding” value with wild type human MIC-1 turned out to be 87%.

The values are drawn from patent publication US20190025332A1 (Novo Nordisk, published 2019).
